Measurements from US9226969B2, “Salt form of a multi-arm polymer-drug conjugate” (priority 2009, dated 2016).
Where two headings read alike, the source gives them in different places.

Experiments:
[1] = 40° C. and 75% relative humidity, over 3 months
Method: Compositions containing varying amounts of protonated irinotecan, as well as differing in the amount of TFA versus HCl salt were examined.
Samples were taken and analyzed on a periodic basis over the course of the studies.
FIG. 2 and FIG. 3 show another set of data obtained from the sample containing >99% HCl salt (<1% free base, squares) and a sample consisting of 86% total salts (14% free base, diamonds) that were stored at 40° C. and 75% relative humidity. […] The increase in smaller PEG species is indicative of decomposition of the PEG backbone to provide multiple PEG species.

[2] = Aqueous hydrolysis at pH 10; conditions: pH 10, 20° C., within 24 hours
Method: (§1) Experiments were performed to determine the fate of the irinotecan-containing PEG species in 4-arm-PEG-Gly-Irino-20K mixed TFA.chloride salt under transesterification (K2CO3 in CH3OH, 20° C.) and aqueous hydrolysis (pH 10, 20° C.) conditions.

[3] = Transesterification of irinotecan-containing PEG species; conditions: K2CO3 in CH3OH, 20° C., after 45 minutes
Method: as §1

Row | Substance | increase in free irinotecan (stability with respect to hydrolysis) [1] | increase in smaller PEG species (PEG backbone decomposition) ([1]; listed as HCl salt) | increase in smaller PEG species (PEG backbone decomposition) ([1]; listed as hydrochloride salt) | free irinotecan (after 4 weeks at 40° C.) [%] | total product related species (after 4 weeks at 40° C.) [%] | free irinotecan (initial value, before storage) [%] | total product related species (initial value, before storage) [%] | aqueous hydrolysis reaction completion [2] [%] | transesterification reaction completion [3] [%]
1 | Pentaerythritolyl-4-Arm-(PEG-1-Methylene-2Oxo-Vinylamino Acetate Linked-Irinotecan)-20K [listing 1 of 2 here] | greater hydrolytic stability than either the free base or mixed TFA.hydrochloride salt | more prone to PEG backbone decomposition than the mixed salt sample containing 14% free base | greater degree of backbone degradation | 1.25 | 97.0 | 0.4 | 98.7 |  | 
2 | Pentaerythritolyl-4-Arm-(PEG-1-Methylene-2Oxo-Vinylamino Acetate Linked-Irinotecan)-20K [listing 2 of 2 here] |  |  |  |  |  |  |  | > 99 | > 99
